For one substance, Kd results are on record in patent publication US20100099103A1.

This assay concerns the target human TNF (hTNF) (human) (UniProt P01375). Put plainly: method not stated (free scFv protein; titration curves in FIG. 11).
Sequence of UniProt P01375 (P01375 77-233 limits assumed): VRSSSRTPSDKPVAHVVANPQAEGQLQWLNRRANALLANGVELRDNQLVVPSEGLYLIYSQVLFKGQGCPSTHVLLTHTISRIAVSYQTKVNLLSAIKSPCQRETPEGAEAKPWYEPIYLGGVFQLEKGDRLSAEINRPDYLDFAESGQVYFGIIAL

As to “2SD4 scFv (D2E7 scFv precursor), free protein”, the Kd is 0.2 µM.

For orientation: Kd means the constant that tells how readily two partners part at equilibrium. A low value points to a tighter complex.
